Measurements taken from patent publication US20200231648A1 (LENTIGEN TECHNOLOGY, published 2020).

What was measured:
CD19-Fc (R&D Biosystems) = target: T1, CD19-Fc (R&D Biosystems) (UniProt P15391 20-291); test: flow cytometry, CAR T cells stained with CD19-Fc and CD20-biotin
T1 construct: Bought staining reagent, 1 ug/sample; also called recombinant CD19; not shown: Fc part of the bought reagent (detected with goat anti-human Fc-gamma)
T1 sequence (looked up): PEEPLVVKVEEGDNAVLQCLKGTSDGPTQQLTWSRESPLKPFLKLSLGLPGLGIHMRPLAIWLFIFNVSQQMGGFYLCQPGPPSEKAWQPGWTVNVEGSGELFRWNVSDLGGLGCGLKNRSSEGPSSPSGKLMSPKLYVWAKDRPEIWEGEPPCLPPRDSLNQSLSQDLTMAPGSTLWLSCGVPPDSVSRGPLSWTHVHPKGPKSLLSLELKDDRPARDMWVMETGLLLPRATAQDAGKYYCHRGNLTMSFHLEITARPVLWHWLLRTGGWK
Protocol: (§1) Cells were washed twice and resuspended in 200 ul Staining Buffer before quantitative analysis by flow cytometry.

[1] = target: T2, CD20-biotin (Miltenyi Biotec) (UniProt P11836 142-188, limits assumed, biotin (site not stated)); test: as above
T2 construct: Bought staining reagent, 0.1 ug/sample, detected with streptavidin conjugate; also called recombinant CD20; CD20 biotin reagent
T2 chain (looked up): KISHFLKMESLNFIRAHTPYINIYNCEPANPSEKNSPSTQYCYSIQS
Protocol: as §1

B1: CAR LTG2200 (LP-2200-CD8 TM-41BB-CD3zeta) (other)
chain: QVQLQQSGPGLVKPSQTLSLTCAISGDSVSSNSAAWNWIRQSPSRGLEWLGRTYYRSKWYNDYAVSVKSRITINPDTSKNQFSLQLNSVTPEDTAVYYCAREVTGDLEDAFDIWGQGTMVTVSSGGGGSGGGGSGGGGSDIQMTQSPSSLSASVGDRVTITCRASQTIWSYLNWYQQRPGKAPNLLIYAASSLQSGVPSRFSGRGSGTDFTLTISSLQAEDFATYYCQQSYSIPQTFGQGTKLEIKAAATTTPAPRPPTPAPTIASQPLSLRPEACRPAAGGAVHTRGLDFACDIYIWAPLAGTCGVLLLSLVITLYCKRGRKKLLYIFKQPFMRPVQTTQEEDGCSCRFPEEEEGGCELRVKFSRSADAPAYQQGQNQLYNELNLGRREEYDVLDKRRGRDPEMGGKPRRKNPQEGLYNELQKDKMAEAYSEIGMKGERRRGKGHDGLYQGLSTATKDTYDALHMQALPPR
notes: Chimeric antigen receptor with the m971 anti-CD22 scFv on primary human T cells; The entry includes the leader peptide; also called 22-BBz; CAR22 LTG2200
binding result (CD19-Fc (R&D Biosystems)): no binding (tested: 1 ug/sample) | binding result [1]: no binding (tested: 0.1 ug/sample)
